Laboratory results taken from patent publication US20050032694A1.

Target: rat agrin (the transmembrane isoform Y4, Z8) (rat) (UniProt P25304)
Test: cell-based or functional assay

UniProt P25304, sequence (P25304 whole entry, canonical isoform): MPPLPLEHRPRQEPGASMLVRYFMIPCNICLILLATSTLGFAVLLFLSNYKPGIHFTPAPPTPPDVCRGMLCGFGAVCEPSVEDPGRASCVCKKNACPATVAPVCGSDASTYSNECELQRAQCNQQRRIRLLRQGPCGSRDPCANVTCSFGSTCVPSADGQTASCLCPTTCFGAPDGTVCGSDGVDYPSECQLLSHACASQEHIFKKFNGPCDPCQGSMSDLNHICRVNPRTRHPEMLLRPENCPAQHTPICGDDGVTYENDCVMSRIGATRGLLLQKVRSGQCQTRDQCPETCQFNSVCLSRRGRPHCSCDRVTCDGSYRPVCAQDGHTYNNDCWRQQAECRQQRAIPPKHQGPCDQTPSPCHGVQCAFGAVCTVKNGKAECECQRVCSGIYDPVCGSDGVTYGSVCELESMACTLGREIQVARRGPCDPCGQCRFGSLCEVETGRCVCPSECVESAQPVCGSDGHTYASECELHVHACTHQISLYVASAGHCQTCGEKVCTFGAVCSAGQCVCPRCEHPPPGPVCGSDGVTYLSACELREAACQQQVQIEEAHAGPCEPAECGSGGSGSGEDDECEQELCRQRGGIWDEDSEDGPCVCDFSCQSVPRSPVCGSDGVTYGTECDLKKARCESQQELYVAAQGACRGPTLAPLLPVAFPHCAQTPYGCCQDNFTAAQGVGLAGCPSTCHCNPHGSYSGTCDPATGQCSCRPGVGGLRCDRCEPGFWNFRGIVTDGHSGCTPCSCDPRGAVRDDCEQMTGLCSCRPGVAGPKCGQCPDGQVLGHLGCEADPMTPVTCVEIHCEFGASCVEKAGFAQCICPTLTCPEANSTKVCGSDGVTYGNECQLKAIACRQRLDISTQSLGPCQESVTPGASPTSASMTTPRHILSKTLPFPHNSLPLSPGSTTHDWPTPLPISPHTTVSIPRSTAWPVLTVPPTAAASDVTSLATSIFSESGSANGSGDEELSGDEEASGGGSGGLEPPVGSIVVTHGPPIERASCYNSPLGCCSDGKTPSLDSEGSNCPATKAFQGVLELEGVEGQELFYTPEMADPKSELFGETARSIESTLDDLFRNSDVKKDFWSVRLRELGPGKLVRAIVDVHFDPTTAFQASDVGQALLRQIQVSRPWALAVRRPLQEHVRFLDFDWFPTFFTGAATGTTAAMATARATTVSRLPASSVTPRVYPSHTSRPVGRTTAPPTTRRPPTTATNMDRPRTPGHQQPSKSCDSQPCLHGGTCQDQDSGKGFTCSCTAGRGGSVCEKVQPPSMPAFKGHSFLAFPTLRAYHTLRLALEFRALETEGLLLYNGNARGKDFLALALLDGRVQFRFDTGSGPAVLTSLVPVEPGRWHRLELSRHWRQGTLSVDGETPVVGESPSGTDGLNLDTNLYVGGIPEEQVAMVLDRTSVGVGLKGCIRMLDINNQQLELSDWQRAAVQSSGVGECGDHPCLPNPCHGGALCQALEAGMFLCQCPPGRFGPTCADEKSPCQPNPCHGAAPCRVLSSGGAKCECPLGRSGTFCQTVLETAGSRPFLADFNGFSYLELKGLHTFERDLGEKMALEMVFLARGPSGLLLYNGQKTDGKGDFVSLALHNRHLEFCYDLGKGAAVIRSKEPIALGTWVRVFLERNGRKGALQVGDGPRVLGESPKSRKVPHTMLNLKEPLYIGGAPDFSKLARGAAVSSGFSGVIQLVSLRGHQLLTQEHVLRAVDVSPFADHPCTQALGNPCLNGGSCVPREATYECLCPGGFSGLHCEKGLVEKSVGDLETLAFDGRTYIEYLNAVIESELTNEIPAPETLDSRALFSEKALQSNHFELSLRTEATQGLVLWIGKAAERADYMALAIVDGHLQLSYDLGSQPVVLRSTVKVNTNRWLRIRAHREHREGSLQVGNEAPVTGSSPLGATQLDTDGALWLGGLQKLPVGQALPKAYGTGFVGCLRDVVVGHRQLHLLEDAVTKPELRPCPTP

“neurotrypsin of the mouse (compound of the formula II) (from UniProt O08762 22-761) (enzyme)” was tested, and the soluble agrin fragment in culture medium of co-transfected HEK293T cells (Western blot) was 100 kDa.
